Target: the molecule itself
Assay: SAXS; molecular weight from forward scattering I(0) against a bovine serum albumin standard; free protein at at least three concentrations in 100 mM KCl, 5 mM MgCl2, 10 mM Tris-HCl (pH 7.5), 5% glycerol

B1: CYT-18* (Neurospora crassa mitochondrial tyrosyl-tRNA synthetase lacking the mitochondrial targeting sequence and most of the C-tail) (enzyme)
chain: MLRREFGPKYTAKINEAEENWQARAEAIKKGKKQNTWDLFEERGYVKDTAGTKEHIAELMRTRRIGAYVGIDPTAPSLHVGHLLPLMPLFWMYLEGYKAFTLIGGSTAKIGDPTGRLKSRDHLSSSDATMNMTKIHYQLKKLWENVDTQMRARGYEADWARKRGIVNNNHWWNKQPMLEVLRRVGHALRIGPMLSRDTVKNKMTQGDGVSFAEFTYPIMQGWDWFELFYQQGVQMQIGGSDQYGNIISGLEVVKAARESEPDPQERKYVTPKTALDECVGFTVPLLTDSSGAKFGKSAGNAIWLDPYQTSVFDFYGYFVRRSDQEVENLLKLFTFMPISEITKTMEEHIKDPSKRVAQHTLAREVVTLVHGKQEASAAEDQHRMMYTGQMTIPQVSRAKDAATGGDQYKTISDQPVTLNNAPRIDMILPESLIMGKSIGRILYAAGLASSTTEGHKLAAAQGCYVGGAHRAGGENVTMNPDLISFMPVKLWFPGETQRYLINGNLLILRKGKHNVRVIQMVSDVEYAASGQTYPGQSFTGAVRKLNEIMKNL
notes: extra N-terminal methionine of the expression construct; stop codons introduced after Leu583; Derived from pEX560 (wild-type CYT-18, amino acids 33-669); also called CYT18/ΔC-tail; N. crassa mtTyrRS
How did the “stoichiometry N” value turn out when B1 was run?
Its value is 2.
